B1: ClpS Variant 1 (Trp-binding ClpS variant), phage displayed (designed binder)
chain: KPPSMYKVILVNDDYTPAEFCIDVLQKFFSYDVERATQLCLAAHYQGKAICGVFTAEVAETKVAMVNKYARENEHAALCTLEKA
notes: tested as phage; also called ClpS variant W1; W1; not shown: N-terminal FLAG tag of the phage display construct; C-terminal phage coat protein p3 of the phage display construct
B2: biotinylated peptide X-SDGMFTAGSLIGK(biotin), X = L (peptide)
peptide: LSDGMFTAGSLIGK(Biotin)
notes: also called Leu peptide
B3: Phage displayed wild-type E. coli ClpS (truncated wildtype ClpS polypeptide, FLAG-tagged, fused to phage coat protein p3) (other)
chain: KPPSMYKVILVNDDYTPMEFVIDVLQKFFSYDVERATQLMLAVHYQGKAICGVFTAEVAETKVAMVNKYARENEHPLLCTLEKA
notes: also called ClpS Wt; ClpS WT; not shown: N-terminal FLAG tag

No end group written: not given here. *: point of attachment. Biotin = O=C1N[C@H]2[C@H](CS[C@H]2CCCCC(=O)*)N1

In one assay the target is B1. Description: competitive phage ELISA, 10 uM free peptide against immobilised Wpep. (In general: In an ELISA, binding on a coated surface is turned into a signal by an enzyme label.)
Turning to ISDGMFTAGSLI [non-biotinylated peptide XSDGMFTAGSLI, X = I], the binding result is recorded as “binds”. For YSDGMFTAGSLI [non-biotinylated peptide XSDGMFTAGSLI, X = Y], the binding result is given as “binds”.

Take GSDGMFTAGSLI [non-biotinylated peptide XSDGMFTAGSLI, X = G]: the binding result is listed as “binds”. On the same count and under the same terms, then LSDGMFTAGSLI [non-biotinylated peptide XSDGMFTAGSLI, X = L], with “binds”; and FSDGMFTAGSLI [non-biotinylated peptide XSDGMFTAGSLI, X = F], with “binds”.

The next assay has as its target B2. Nature of the assay: phage ELISA.
Consider B1, for which the binding result is listed as “no binding”.

The next assay has as its target B3. Description: phage ELISA.
Turning to B2, the binding result is “binds”.

For WSDGMFTAGSLIGK(Biotin) (also called Wpep; Trp peptide) [biotinylated peptide X-SDGMFTAGSLIGK(biotin), X = W], the binding result is reported as “binds”.

Another assay concerns the target B1. Description: competitive phage ELISA against immobilised Wpep.
Regarding ESDGMFTAGSLI [non-biotinylated peptide XSDGMFTAGSLI, X = E], the binding result is “no binding (tested: 10 uM)”. For TSDGMFTAGSLI [non-biotinylated peptide XSDGMFTAGSLI, X = T], the binding result is “no binding (tested: 10 uM)”. As to ASDGMFTAGSLI [non-biotinylated peptide XSDGMFTAGSLI, X = A], the binding result is “no binding (tested: 10 uM)”. As to NSDGMFTAGSLI [non-biotinylated peptide XSDGMFTAGSLI, X = N], the binding result was “no binding (tested: 10 uM)”. Consider KSDGMFTAGSLI [non-biotinylated peptide XSDGMFTAGSLI, X = K], for which the binding result is on record as “no binding (tested: 10 uM)”.

On to QSDGMFTAGSLI [non-biotinylated peptide XSDGMFTAGSLI, X = Q], for which the binding result is on record as “no binding (tested: 10 uM)”. With HSDGMFTAGSLI [non-biotinylated peptide XSDGMFTAGSLI, X = H], the binding result is listed as “no binding (tested: 10 uM)”.

As for DSDGMFTAGSLI [non-biotinylated peptide XSDGMFTAGSLI, X = D], the binding result was “no binding (tested: 10 uM)”. As for VSDGMFTAGSLI [non-biotinylated peptide XSDGMFTAGSLI, X = V], the binding result was “no binding (tested: 10 uM)”. RSDGMFTAGSLI [non-biotinylated peptide XSDGMFTAGSLI, X = R]: the binding result is reported as “no binding (tested: 10 uM)”. Regarding CSDGMFTAGSLI [non-biotinylated peptide XSDGMFTAGSLI, X = C], the binding result is reported as “no binding (tested: 10 uM)”. On to MSDGMFTAGSLI [non-biotinylated peptide XSDGMFTAGSLI, X = M], for which the binding result is reported as “no binding (tested: 10 uM)”. As for PSDGMFTAGSLI [non-biotinylated peptide XSDGMFTAGSLI, X = P], the binding result is listed as “no binding (tested: 10 uM)”.

Turning to SSDGMFTAGSLI [non-biotinylated peptide XSDGMFTAGSLI, X = S], the binding result was “no binding (tested: 10 uM)”.

The target of another assay is B1. Nature of the assay: competitive phage ELISA: W1 phage equilibrated with free peptide, then on immobilised Wpep(biotin).
One may read the IC50 as the concentration needed to halve the response being measured. A lower IC50 goes with inhibition by little substance. As for WSDGMFTAGSLI (also called Wpep) [non-biotinylated peptide XSDGMFTAGSLI, X = W], the IC50 is about 1 µM and the “binding remaining at 10 uM competitor (relative to no competitor)” value is 11%.

The target of the next assay is T1, streptavidin (UniProt P22629 37-163).
T1 construct: also called SA
T1 sequence (P22629 37-163 limits assumed): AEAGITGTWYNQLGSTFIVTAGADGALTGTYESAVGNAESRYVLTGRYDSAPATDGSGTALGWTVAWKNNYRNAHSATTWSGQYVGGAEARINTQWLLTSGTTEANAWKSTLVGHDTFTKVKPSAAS
Nature of the assay: phage ELISA, FIG. 6B.
Turning to B3, the binding result is recorded as “no binding”.

The target in another assay is T2, bovine serum albumin (bovine, UniProt P02769 25-607).
T2 construct: also called BSA
T2 sequence (P02769 25-607 limits assumed): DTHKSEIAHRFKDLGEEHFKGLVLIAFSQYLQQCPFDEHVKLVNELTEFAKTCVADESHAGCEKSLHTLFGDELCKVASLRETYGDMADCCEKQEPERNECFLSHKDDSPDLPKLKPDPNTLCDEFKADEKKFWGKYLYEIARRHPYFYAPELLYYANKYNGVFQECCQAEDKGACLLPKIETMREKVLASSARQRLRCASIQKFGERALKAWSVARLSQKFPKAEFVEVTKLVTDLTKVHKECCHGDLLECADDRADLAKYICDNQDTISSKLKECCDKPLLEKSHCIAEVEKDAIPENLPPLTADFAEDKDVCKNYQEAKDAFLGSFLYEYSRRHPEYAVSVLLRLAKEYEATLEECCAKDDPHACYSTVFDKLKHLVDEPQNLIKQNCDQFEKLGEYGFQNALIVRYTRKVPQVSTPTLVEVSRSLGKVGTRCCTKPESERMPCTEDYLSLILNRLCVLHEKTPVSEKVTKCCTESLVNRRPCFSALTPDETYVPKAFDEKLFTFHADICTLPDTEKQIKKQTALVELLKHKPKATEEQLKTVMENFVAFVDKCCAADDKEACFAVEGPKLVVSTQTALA
Nature of the assay: phage ELISA, FIG. 6B.
Regarding B3, the binding result is reported as “no binding”.

For the origin of these results see patent US9566335 (GOVERNING COUNCIL OF THE UNIVERSITY OF TORONTO, dated 2017).
